Experiment [1] deals with TMEM16A-GFP fusion protein on HEK293 stable cells (UniProt Q5XXA6). The experiment in a line: flow cytometry on HEK293-TMEM16A cells.
The target of experiment [2] is SP31 (ab64085) Abcam rabbit monoclonal antibody against human TMEM16A. The experiment in a line: peptide pre-incubation of the antibody, western blot of TMEM16A. For orientation: Immunoblotting shows a protein as a band on a membrane.
The next experiment has as its target T1, linear peptide 46_ECD1-3 (human).
T1 peptide: KDYREPPWSENKYDI
Description: peptide microarray, linear peptide, Cy5 anti-rat IgG detection. On the procedure: (§1) Both set of peptides were printed on microarray slides in triplicate, incubated with the antibody of interest (12E11) and control antibodies. One is an incubation with an unrelated antibody from the same isotype (rat control IgG2b), the second using only the secondary antibody (anti-rat IgG (H+L) (JIR, 212-175-082) (Label Cy5)) to assess unspecific binding due to the detection antibody. The experiments are performed essentially as described in Maksimov P, et al. 2012, PLoS One 7:e34212. doi:10.1371/journal.pone. 0034212.
(§2) The determination of peptide-antibody binding was performed by RepliTope-analysis where the peptide microarray (triplicate) was incubated with the primary antibody followed by a fluorescently labelled secondary antibody directed against the Fc-part of the primary one. All steps were performed on a TECAN microarray processing station enabling highly reliable and reproducible washing and incubation steps. After performing the incubation steps and subsequent to the final washing steps (to remove the unbound secondary antibodies) the microarrays were dried using a nitrogen stream and scanned in a high resolution microarray scanning system with appropriate wavelength settings. Control incubations were performed with an unrelated antibody having the same isotype to exclude false positive signals.
(§3) The resulting images were analyzed and quantified using spot-recognition software GenePix (Molecular Devices). For each spot, the mean signal intensity was extracted (between 0 and 65535 arbitrary units). For further data evaluation, the MMC2 values were determined. The MMC2 equals the mean value of all three instances on the microarray. Except the coefficient of variation (CV)—standard-deviation divided by the mean value—is larger 0.5, in this case the mean of the two closest values (MC2) is assigned to MMC2.

The target in the next experiment is T2, linear peptide 44_ECD1-3 (human).
T2 peptide: VQISRYKDYREPPWS
Described as above. The protocol: as §1, §2, §3

A further experiment has as its target T3, linear peptide 45_ECD1-3 (human).
T3 peptide: SRYKDYREPPWSENK
The description is as above. On the procedure:
as §1, §2, §3

The target of experiment [3] is T4, cyclic peptide 45_ECD1-3 cys (human, disulfide 1-17 (inferred)).
T4 construct: Same 15-mer as linear peptide 45, flanked by cysteines; also called Peptide 45 (cyclic)
T4 peptide: CSRYKDYREPPWSENKC
Description: peptide microarray, cyclic peptide, Cy5 anti-rat IgG detection. On the procedure:
as §1, §2, §3

Experiment [4] addresses T5, cyclic peptide 46_ECD1-3 cys (human, disulfide 1-17 (inferred)).
T5 construct: Same 15-mer as linear peptide 46, flanked by cysteines; also called peptide 46 (cyclic)
T5 peptide: CKDYREPPWSENKYDIC
Described as above. The protocol:
as §1, §2, §3

In experiment [5] the target is T6, cyclic peptide 44_ECD1-3 cys (human, disulfide 1-17 (inferred)).
T6 construct: Same 15-mer as linear peptide 44, flanked by cysteines; also called Peptide 44 (cyclic)
T6 peptide: CVQISRYKDYREPPWSC
The description is as above. The protocol: as §1, §2, §3

From patent publication US20130323252A1 (Novartis, published 2013) come the findings set out here.

Positions of bridges follow the written chain, without caps; N, C: chain ends. No end group written: not given here.

TMEM16A-GFP fusion protein on HEK293 stable cells, sequence (Q5XXA6 whole entry, the tested form may be a part): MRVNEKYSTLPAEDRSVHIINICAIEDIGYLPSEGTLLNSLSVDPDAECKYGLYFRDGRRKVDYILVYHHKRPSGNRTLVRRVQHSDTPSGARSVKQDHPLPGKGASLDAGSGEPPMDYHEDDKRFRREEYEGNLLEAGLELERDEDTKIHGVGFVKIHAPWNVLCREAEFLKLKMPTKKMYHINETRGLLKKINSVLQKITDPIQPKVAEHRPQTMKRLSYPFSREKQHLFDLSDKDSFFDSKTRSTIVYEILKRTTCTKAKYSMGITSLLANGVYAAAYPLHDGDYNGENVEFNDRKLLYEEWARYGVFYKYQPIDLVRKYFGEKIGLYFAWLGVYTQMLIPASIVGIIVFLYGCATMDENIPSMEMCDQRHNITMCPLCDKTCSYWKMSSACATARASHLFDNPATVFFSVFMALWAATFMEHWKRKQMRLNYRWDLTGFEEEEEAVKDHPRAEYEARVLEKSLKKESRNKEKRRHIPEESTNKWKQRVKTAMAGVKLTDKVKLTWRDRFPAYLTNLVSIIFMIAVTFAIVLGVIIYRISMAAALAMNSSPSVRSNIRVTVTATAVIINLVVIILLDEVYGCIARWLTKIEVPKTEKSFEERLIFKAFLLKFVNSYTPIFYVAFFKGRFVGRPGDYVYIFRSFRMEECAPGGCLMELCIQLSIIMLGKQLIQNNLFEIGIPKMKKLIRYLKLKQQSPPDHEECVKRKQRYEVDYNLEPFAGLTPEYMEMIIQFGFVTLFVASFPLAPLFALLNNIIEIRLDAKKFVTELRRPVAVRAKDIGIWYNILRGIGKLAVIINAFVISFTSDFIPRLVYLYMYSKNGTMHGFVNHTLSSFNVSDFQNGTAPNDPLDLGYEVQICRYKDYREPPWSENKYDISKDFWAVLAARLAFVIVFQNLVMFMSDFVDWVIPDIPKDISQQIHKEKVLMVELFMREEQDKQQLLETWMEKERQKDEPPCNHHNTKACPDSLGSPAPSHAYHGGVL

In experiment [1], “isotype control antibody (control for 12E11 in flow cytometry)” showed a median fluorescence intensity of 93.

B1: blocking Peptide #2 (peptide)
peptide: DHEECVKRKQRYEVDYNLE
In the case of B1, in experiment [2], the peptide concentration that effectively blocked amounted to 0.01 µg/mL.

B2: 12E11 TMEM16A antibody (antibody, V domains shown)
VH: QVQLKESGPGLVQPSQTLTLTCTVSGFSLSNYDMHWVRQSPGKGLDWMGVIWGNGKTQYNSGLTSRLSISRDTSKSQVFLKMNSLQTEDTAIYFCTRSGYYYDGSYYSLFDYWGQGVMVTVSS
VL: DVVLTQTPPTLSATIGQSVSISCRSSQSLLHSNGNTYLNWLLQRPGQPPQLLIYLVSRLESGVPNRFSGSGSGTDFTLKISGVEAEDLGVYYCVQSTHAPAFGGGTKLELK
notes: Rat hybridoma monoclonal made by genetic immunization; The same-isotype control was rat IgG2b, which implies a rat IgG2b constant region
B2: the “Signal intensity after subtraction of control signal (AU)” value with linear peptide 46_ECD1-3 came to 15100 AU; with linear peptide 44_ECD1-3, 36800 AU; with linear peptide 45_ECD1-3, 27300 AU; in experiment [3] it was 56600 AU; in experiment [4] it was 24800 AU; in experiment [5], 55900 AU.
